# Target: human syndecan-1 with C-terminal HA tag (Syn-1-HA), stably expressed on GM00701 cells (human) (UniProt P18827)
# Test: radioligand binding; ^125I-apoE-VLDL (2 μg/ml; in Figure 2C supplemented with 3 μg/ml apoE) on GM00701 or GM00701/Syn-1-HA cells, 4°C, 3 h, 20 mM Hepes pH 7.4, 150 mM NaCl, 2 mM CaCl2, 1% BSA; without or with unlabeled apoE-VLDL (100 μg/ml); specific binding = total minus non-competable
# UniProt P18827, sequence (P18827 23-310): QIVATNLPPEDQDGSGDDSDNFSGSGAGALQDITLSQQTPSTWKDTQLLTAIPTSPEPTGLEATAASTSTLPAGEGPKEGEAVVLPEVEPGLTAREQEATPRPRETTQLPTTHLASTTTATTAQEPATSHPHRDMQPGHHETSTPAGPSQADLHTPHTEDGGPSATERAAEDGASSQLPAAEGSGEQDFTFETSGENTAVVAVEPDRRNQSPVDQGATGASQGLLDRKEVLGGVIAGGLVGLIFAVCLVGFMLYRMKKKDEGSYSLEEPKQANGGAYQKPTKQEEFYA
substance,measurement,value
"apoE-VLDL (very low density lipoprotein particles with apoB100 and apoE, from rabbit plasma) (from UniProt P18287 19-311; P17165 1-144) (complex)",fold increase in specific binding over control GM00701 cells,5 fold
